In one test the target is T1, MBP:AtMS2 (Arabidopsis thaliana, UniProt Q9SRV5 1-765).
T1 construct: METHIONINE SYNTHASE 2 (AtMS2), Arabidopsis thaliana, At3g03780; cloned into the pMBP-c vector; source: E. coli BL21, purified (amylose resin)
T1 sequence (looked up): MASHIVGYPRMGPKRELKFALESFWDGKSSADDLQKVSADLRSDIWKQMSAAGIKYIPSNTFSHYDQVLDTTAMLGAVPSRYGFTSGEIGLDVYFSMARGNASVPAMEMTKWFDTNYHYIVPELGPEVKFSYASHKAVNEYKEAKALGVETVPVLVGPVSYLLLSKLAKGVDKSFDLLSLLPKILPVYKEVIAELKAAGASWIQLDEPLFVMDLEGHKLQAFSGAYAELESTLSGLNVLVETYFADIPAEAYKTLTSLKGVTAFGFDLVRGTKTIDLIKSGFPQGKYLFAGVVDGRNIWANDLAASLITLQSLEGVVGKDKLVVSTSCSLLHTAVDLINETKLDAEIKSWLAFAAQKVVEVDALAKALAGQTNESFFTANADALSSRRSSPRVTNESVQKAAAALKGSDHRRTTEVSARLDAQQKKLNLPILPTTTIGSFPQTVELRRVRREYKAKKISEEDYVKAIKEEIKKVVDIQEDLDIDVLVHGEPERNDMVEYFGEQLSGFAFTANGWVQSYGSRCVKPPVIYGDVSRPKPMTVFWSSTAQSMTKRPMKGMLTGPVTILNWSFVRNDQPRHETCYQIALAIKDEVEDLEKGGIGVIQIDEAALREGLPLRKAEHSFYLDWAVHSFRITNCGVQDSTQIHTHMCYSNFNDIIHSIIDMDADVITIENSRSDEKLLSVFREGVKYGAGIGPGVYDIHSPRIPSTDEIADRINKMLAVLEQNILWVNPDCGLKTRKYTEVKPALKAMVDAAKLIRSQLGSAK
Nature of the test: native gel or EMSA; super shift of a Texas red-labeled WUS or WOX5 promoter probe; 20 uL binding buffer (10 mM Hepes-KOH pH 7.8, 20 mM KCl, 10 mM MgCl2, 1 mM DTT, 0.1% BSA, 5% glycerol, 0.5% Triton-X100, 20 ng/uL salmon sperm DNA), 22 °C, 30 min; 6% polyacrylamide gel. Particulars: both partners purified. A general note: In EMSA bound probe runs differently from free probe, usually more slowly.

Test [1] addresses T2, GST:AtMS2 (Arabidopsis METHIONINE SYNTHASE 2 fused with GST) (Arabidopsis thaliana, UniProt Q9SRV5 1-765).
T2 construct: METHIONINE SYNTHASE 2 (AtMS2), Arabidopsis thaliana, At3g03780; AtMS2 cDNA cloned into pGEX-4T-1; also called AtMS2 protein fused with GST; AtMS2 in fusion with GST; source: E. coli BL21, purified (glutathione resin)
T2 sequence (looked up): T1 sequence (looked up)
The test can be described thus: pull-down; MBP fusions or MBP immobilised on amylose resin, incubated with GST:AtMS2; 50 mM Tris-HCl pH 7.4, 200 mM NaCl, 5.0% glycerol, 1.5% Triton X-100, 10 mM NaF, 1.0 mM Na3VO4, 1.0 mM PMSF; 1.5 h at 4 °C; immunoblot with anti-GST antibody. Particulars: both partners purified. A general note: Immunoblotting shows a protein as a band on a membrane.

The values that follow come from PMC11359516, “Methionine Synthase 2 Represses Stem Cell Maintenance of Arabidopsis thaliana in Response to Salt Stress” (Plants, 2024).

B1: MBP (maltose-binding protein):WUS fusion protein (natural protein, Arabidopsis thaliana, UniProt Q9SB92 1-292, looked up)
chain: MEPPQHQHHHHQADQESGNNNNNKSGSGGYTCRQTSTRWTPTTEQIKILKELYYNNAIRSPTADQIQKITARLRQFGKIEGKNVFYWFQNHKARERQKKRFNGTNMTTPSSSPNSVMMAANDHYHPLLHHHHGVPMQRPANSVNVKLNQDHHLYHHNKPYPSFNNGNLNHASSGTECGVVNASNGYMSSHVYGSMEQDCSMNYNNVGGGWANMDHHYSSAPYNFFDRAKPLFGLEGHQEEEECGGDAYLEHRRTLPLFPMHGEDHINGGSGAIWKYGQSEVRPCASLELRLN
notes: WUSCHEL (WUS), Arabidopsis thaliana, At2g17950; cloned into the pMBP-c vector; also called MBP:WUS; MBP-tagged WUS; source: E. coli BL21, purified (amylose resin)
Consider B1, for which the binding result (with MBP:AtMS2; in test [1]) was “binds” each time.

B2: MBP:WOX4 (natural protein, Arabidopsis thaliana, UniProt Q6X7J9 1-251, looked up)
chain: MKVHEFSNGFSSSWDQHDSTSSLSLSCKRLRPLAPKLSGSPPSPPSSSSGVTSATFDLKNFIRPDQTGPTKFEHKRDPPHQLETHPGGTRWNPTQEQIGILEMLYKGGMRTPNAQQIEHITLQLGKYGKIEGKNVFYWFQNHKARERQKQKRNNLISLSCQSSFTTTGVFNPSVTMKTRTSSSLDIMREPMVEKEELVEENEYKRTCRSWGFENLEIENRRNKNSSTMATTFNKIIDNVTLELFPLHPEGR
notes: WUSCHEL-RELATED HOMEOBOX 4 (WOX4), Arabidopsis thaliana, At1g46480; cloned into the pMBP-c vector; also called MBP-tagged WOX4; source: E. coli BL21, purified (amylose resin)
Consider B2, for which, in test [1], the binding result is “binds”.

B3: MBP:WOX5 (natural protein, Arabidopsis thaliana, UniProt Q8H1D2 1-182, looked up)
chain: MSFSVKGRSLRGNNNGGTGTKCGRWNPTVEQLKILTDLFRAGLRTPTTDQIQKISTELSFYGKIESKNVFYWFQNHKARERQKRRKISIDFDHHHHQPSTRDVFEISEEDCQEEEKVIETLQLFPVNSFEDSNSKVDKMRARGNNQYREYIRETTTTSFSPYSSCGAEMEHPPPLDLRLSFL
notes: WUSCHEL-RELATED HOMEOBOX 5 (WOX5), Arabidopsis thaliana, At3g11260; cloned into the pMBP-c vector; also called MBP-tagged WOX5; source: E. coli BL21, purified (amylose resin)
For B3, the binding result (in the test with MBP:AtMS2; in test [1]) was “binds” in each case.
